For test [1], the target named is mannose 6-phosphate receptor (M6PR) on K-562 cells. The experiment in a line: cell-based or functional assay.
Test [2] shares this target. The experiment in a line: flow cytometry on K-562 cells expressing M6PR; reference T028100075-bis-M6P(1x). A general note: Flow cytometry measures light scatter and fluorescence of single cells or particles in a stream.
Test [3] shares this target. In words: flow cytometry on K-562 cells expressing M6PR, detection with HSA-biotin and streptavidin-phycoerythrin.

Numbering of substitutions follows the chain as printed. Numbers in names are those of the source. Where only a bound is given, the exact number is not on record here.

From patent US20240415974A1 come the findings set out here.

B1: T028100075-bis-M6P(1x) (bispecific antibody)
chain: DVQLVESGGGVVQPGGSLRLSCAASGFTFRSFGMSWVRQAPGKGPEWVSSISGSGSDTLYADSVKGRFTISRDNSKNTLYLQMNSLRPEDTALYYCTIGGSLSRSSQGTLVTVSSGGGGSGGGGSGGGGSEVQLVESGGGLVQAGGSLSISCAASGGSLSNYVLGWFRQAPGKEREFVAAINWRGDITIGPPNVEGRFTISRDNAKNTGYLQMNSLAPDDTAVYYCGAGTPLNPGAYIYDWSYDYWGRGTLVTVSSGGC
modifications: bisM6P-PEG4-maleimide conjugated to the thiol of the C-terminal Cys (-GGC) of the building block (SEQ ID NO.: 175); DOL by mass spec 1.00
Turning to B1, in test [1], the decrease in internalization potency on K-562 cells against the 3x bis-M6P conjugates was determined as 20 fold and the internalization potency on K-562 cells, EC50 [M] (HSA-pHAb, flow cytometry) stood at 5.64e-08 M.

B2: T028100069-bis-M6P(3x) (bispecific antibody)
chain: DVQLVESGGGVVQPGGSLRLSCAASGFTFRSFGMSWVRQAPGKGPEWVSSISGSGSDTLYADSVKGRFTISRDNSKNTLYLQMNSLRPEDTALYYCTIGGSLSRSSQGTLVTVSSGGGGSGGGGSGGGGSEVQLVESGGGLVQAGGSLSISCAASGGSLSNYVLGWFRQAPGCEREFVAAINWRGDITIGPPNVEGRFTISRDNAKNTGYLQMNSLAPDDTAVYYCGAGTPLNPGAYIYCWSYDYWGCGTLVTVSS
modifications: bisM6P-PEG4-maleimide conjugated to the thiols of the three engineered Cys of the ISVD-based building block (Kabat positions 43, 100f and 105 of SEQ ID NO.: 80); DOL by mass spec 2.90
The EC50 is the concentration at which the effect is half-maximal. For B2, in test [1], the internalization potency on K-562 cells, EC50 [M] (HSA-pHAb, flow cytometry) is 3.86e-09 M. Besides, in test [2], the increase in specific cell binding against the molecule with a single bisM6P (DOL 1) (orders of magnitude) is more than 2. This molecule showed an EC50 in test [3] of 0.143 nM.

B3: T028100070-bis-M6P(3x) (bispecific antibody)
chain: B2 chain with K206C, G235C, C240D, C248R
modifications: bisM6P-PEG4-maleimide conjugated to the thiols of the three engineered Cys of the ISVD-based building block (Kabat positions 43, 75 and 100a of SEQ ID NO.: 81); DOL by mass spec 2.84
In test [1], B3 came in with an internalization potency on K-562 cells, EC50 [M] (HSA-pHAb, flow cytometry) of 2.88e-09 M. In addition, in test [2], the increase in specific cell binding against the molecule with a single bisM6P (DOL 1) (orders of magnitude) is more than 2. Besides, in test [3], the EC50 was determined as 0.154 nM.
